Experimental data from patent US20220324964A1 (GENERAL HOSPITAL, published 2022).

T1: soluble BCMA, labeled (UniProt Q02223 1-54, fluorescent label (not specified))
T1 construct: Labeled soluble protein used to stain CAR T cells in flow cytometry; also called sBCMA; fluorescent BCMA
T1 sequence (looked up): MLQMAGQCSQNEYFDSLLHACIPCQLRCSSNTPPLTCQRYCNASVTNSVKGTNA

T2: soluble TACI protein, fluorescently labeled (UniProt O14836 1-165, limits assumed, fluorescent label (not specified))
T2 construct: Labeled soluble protein used to stain CAR T cells in flow cytometry; also called sTACI; fluorescent TACI
T2 sequence (looked up): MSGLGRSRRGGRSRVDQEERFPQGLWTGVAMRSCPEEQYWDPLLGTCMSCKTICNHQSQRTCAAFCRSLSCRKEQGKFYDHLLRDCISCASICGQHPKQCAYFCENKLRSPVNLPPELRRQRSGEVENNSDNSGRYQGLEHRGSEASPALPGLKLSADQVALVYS

T3: his-tagged recombinant TACI (UniProt O14836 1-165, limits assumed)
T3 construct: Analyte in the SPR assay; also called TNFRSF13B; not shown: his tag
T3 sequence (looked up): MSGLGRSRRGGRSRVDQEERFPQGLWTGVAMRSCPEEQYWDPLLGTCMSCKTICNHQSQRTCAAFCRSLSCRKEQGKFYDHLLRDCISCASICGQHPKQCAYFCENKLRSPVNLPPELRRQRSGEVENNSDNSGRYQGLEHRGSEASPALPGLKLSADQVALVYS


What was measured:
soluble BCMA, labeled = biological target: T1, soluble BCMA, labeled; assay: flow cytometry, labeled soluble BCMA (8 to 1000 ng) on CAR T cells, gated on live CAR T cells
Method: The anti-BCMA, anti-TACI (H/L), and anti-TACI (L/H) CAR T cells were evaluated for their capabilities to bind to soluble TACI (sTACI), soluble BCMA (sBCMA), and soluble APRIL (sAPRIL) was determined. T cells were washed 4 times in PBS 4% BSA, and incubated with labeled protein on ice at 4° C. for 40 min. After incubation, cells were washed twice with FACS buffer and flow cytometry was performed gating on live, CAR T cells to calculate protein binding. As evident in FIG. 12A, anti-TACI (L/H) CAR T cells have higher binding efficiency to soluble TACI than anti-TACI (H/L) CAR T cells.

[1] = biological target: T2, soluble TACI protein, fluorescently …; assay: flow cytometry, fluorescent soluble TACI titrated 0.01 to 1000 nM on CAR T cells, MFI relative to untransduced cells (panel Amount of soluble TACI binding), N=3
Source text: (§1) The top two plots show binding of fluorescent BCMA and the bottom two plots show binding of fluorescent TACI to anti-TACI H-L CAR, anti-TACI L-H CAR, anti-BCMA, anti-TACI/anti-BCMA bispecific CAR, anti-BCMA/anti-TACI bispecific CAR, or untransduced T cells. The two left plots show the percentage of cells positive for BCMA or TACI. The two right plots show median fluorescence intensity for each cell population relative to untransduced cells.
(§2) To test the efficacy of bispecific CAR T cells to bind their respective antigens, T cells were either left untransduced, or transduced with anti-TACI H-L CAR, anti-TACI L-H CAR, anti-BCMA CAR, anti-TACI/anti-BCMA bispecific CAR, or anti-BCMA/anti-TACI bispecific CAR, and were tested for their binding of soluble antigens.

[2] = biological target: T2, soluble TACI protein, fluorescently …; assay: flow cytometry, fluorescent soluble TACI titrated 0.01 to 1000 nM on CAR T cells, percentage TACI+, N=3
Method: (§3) FIGS. 25A-25B show measurements of binding of soluble TACI protein to untransduced T cells, and to T cells expressing anti-TACI H-L, anti-TACI L-H, or anti-BCMA. Cells were incubated with fluorescent soluble TACI protein at various concentrations, after which fluorescence of the cells was measured using flow cytometry, represented as percentage of cells positive for TACI (FIG. 25A) or as median fluorescence intensity (MFI) relative to signal measured in untransduced cells (FIG. 25B).
(§4) To evaluate the expression, binding efficacy, and binding specificity of anti-TACI CARs, normal donor T cells were transduced with anti-TACI H-L, anti-TACI L-H, or anti-BCMA and transduction efficiency was evaluated by measuring the percentage of each T cell population positive for mCherry expression by flow cytometry. […] To compare binding efficiency and specificity of different CARs, T cells expressing each CAR construct were incubated with fluorescently-labeled soluble TACI and analyzed by flow cytometry.

[3] = biological target: T2, soluble TACI protein, fluorescently …; assay: flow cytometry, fluorescent soluble TACI titrated 0.01 to 1000 nM on CAR T cells, percentage TACI+ (panel Soluble binding of TACI), N=3
Source text: as §1, §2

[4] = biological target: T2, soluble TACI protein, fluorescently …; assay: flow cytometry, fluorescent soluble TACI titrated 0.01 to 1000 nM on CAR T cells, MFI relative to untransduced cells, N=3
Method: as §3, §4

[5] = biological target: T3, his-tagged recombinant TACI; assay: SPR; antibody captured on anti-mouse IgG chip, his-tagged recombinant TACI as analyte
Method: The antibodies were analyzed by surface plasmon resonance according to the following procedure (FIG. 2). The binding of his-tagged recombinant TACI to anti-TACI antibody was captured to 120 RU (for TACI) on anti-mouse IgG.

Row | Binder | binding result (soluble BCMA, labeled) | EC50 (read off the curve) [1] [nM] | EC50 (read off the curve) [2] [nM] | EC50 (read off the curve) [3] [nM] | EC50 (read off the curve) [4] [nM] | Kd [5] [nM] | koff [5] [s⁻¹] | kon [5] [M⁻¹ s⁻¹]
1 | Anti-TACI (H/L) CAR expressed on T cells (other, Chimeric antigen receptor: anti-TACI scFv VH-(G4S)4-VL, CD8 hinge/TM, 4-1BB, CD3zeta; The vector also expresses mCherry; also called Anti-TACI CAR (H-L)) EVQLQQSGPELVKPGASVKISCKTSGYTFTESTIHWVKQSHGKSLEWIGGISPNNGGSPFNQKFKGKATLTVDKSSSTVYMELRSLSSEDSAVYYCAKWVRGAMDFWGQGTSVTVSSGGGGSGGGGSGGGGSGGGGSDIVLTQSPASLAVSLGQRATISCRASESVDYYGMSLMNWFQQKPGQPPKLVIYAASNQGSGVPARFSGSGSGTDFRLNIHPLEEDDTGMYFCQQSKEAPPTFGGGTKLEIKTTTPAPRPPTPAPTIASQPLSLRPEACRPAAGGAVHTRGLDFACDIYIWAPLAGTCGVLLLSLVITLYCKRGRKKLLYIFKQPFMRPVQTTQEEDGCSCRFPEEEEGGCELRVKFSRSADAPAYQQGQNQLYNELNLGRREEYDVLDKRRGRDPEMGGKPRRKNPQEGLYNELQKDKMAEAYSEIGMKGERRRGKGHDGLYQGLSTATKDTYDALHMQALPPR | no binding (tested: 1000 ng) | ~8 | ~2 | ~2 | ~8 |  |  | 
2 | anti-TACI antibody (monoclonal antibody from hybridoma, Example 1) (antibody, V domains shown, also called anti-TACI mAb) VH: EVQLQQSGPELVKPGASVKISCKTSGYTFTESTIHWVKQSHGKSLEWIGGISPNNGGSPFNQKFKGKATLTVDKSSSTVYMELRSLSSEDSAVYYCAKWVRGAMDFWGQGTSVTVSS VL: not shown |  |  |  |  |  | 0.861 | 0.00121 | 1.41e+06
